Biological target: T1, mouse C-KIT (SB, Lot #LC05DE2304) (mouse, UniProt P05532 25-523)
T1 chain: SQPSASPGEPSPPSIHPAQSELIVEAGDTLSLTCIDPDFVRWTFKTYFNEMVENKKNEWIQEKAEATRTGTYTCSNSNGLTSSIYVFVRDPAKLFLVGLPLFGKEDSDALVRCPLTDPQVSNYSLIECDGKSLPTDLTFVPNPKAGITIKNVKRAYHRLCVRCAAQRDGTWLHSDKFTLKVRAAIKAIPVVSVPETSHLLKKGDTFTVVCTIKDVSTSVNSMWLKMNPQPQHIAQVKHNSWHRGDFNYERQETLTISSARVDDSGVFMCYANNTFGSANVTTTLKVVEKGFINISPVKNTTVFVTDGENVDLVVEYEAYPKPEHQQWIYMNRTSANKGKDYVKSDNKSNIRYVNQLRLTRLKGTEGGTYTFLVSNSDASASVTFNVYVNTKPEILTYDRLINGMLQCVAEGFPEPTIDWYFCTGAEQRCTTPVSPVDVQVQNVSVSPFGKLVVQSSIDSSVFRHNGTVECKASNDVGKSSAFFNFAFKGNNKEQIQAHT
Experiment: SPR

B1: 2G4 antibody (antibody, V domains shown)
VH: QVQLVESGGGVVQPGRSLRLSCAASGFTFSRYGMHWVRQAPGKGLEWVAVIWYDGTNKDYTDSVRGRFTISRDNSKNTLYLQMNSLRAEDTAVYYCAREDWAEAFDMWGQGTTVTVSS
VL: not shown
  Kd: 11.5 nM

From patent US20210355212A1 (published 2021)
